Laboratory results: article PMC3161730 (2012)
Where two headings read alike, the source gives them in different places.

Experiments:
Experiment in all cases: plate-based fluorescence binding assay
TrkB [1] = molecular target: T1, TrkB (Rattus norvegicus, UniProt Q63604)
T1 chain: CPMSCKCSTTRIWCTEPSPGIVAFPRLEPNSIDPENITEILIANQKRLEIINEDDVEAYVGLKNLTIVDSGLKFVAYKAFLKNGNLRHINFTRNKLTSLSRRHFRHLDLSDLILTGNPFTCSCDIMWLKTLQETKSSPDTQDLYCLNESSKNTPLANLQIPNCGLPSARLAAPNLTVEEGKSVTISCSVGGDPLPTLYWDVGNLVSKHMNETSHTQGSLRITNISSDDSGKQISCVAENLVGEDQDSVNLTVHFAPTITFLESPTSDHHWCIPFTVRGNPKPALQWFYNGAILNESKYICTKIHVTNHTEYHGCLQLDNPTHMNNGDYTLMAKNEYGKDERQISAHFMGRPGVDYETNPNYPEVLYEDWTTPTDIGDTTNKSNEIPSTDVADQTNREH

TrkB [2] = molecular target: T1, TrkB
TrkB [3] = molecular target: T1, TrkB
TrkB [4] = molecular target: T1, TrkB

Kd (TrkB [1]): 0.53 nM
Kd (TrkB [2]): 3.37 nM
Kd (TrkB [3]): 1.79 pM
Kd (TrkB [4]): 0.11 pM
B1: BDNF (protein)
chain: HSDPARRGELSVCDSISEWVTAADKKTAVDMSGGTVTVLEKVPVSKGQLKQYFYETKCNPMGYTKEGCRGIDKRHWNSQCRTTQSYVRALTMDSKKRIGWRFIRIDTSCVCTLTIKRGR
